These results are taken from patent US20190065668A1 (published 2019).

The target of test [1] is recombinant P. falciparum plasmepsin V (residues N80-R528) (Plasmodium falciparum, UniProt Q8I6Z5 80-528). Briefly: cell-based or functional assay.
In test [2] the target is plasmepsin V in P. falciparum parasites (endogenous enzyme in trophozoites expressing PfEMP3-GFP) (Plasmodium falciparum, UniProt Q8I6Z5 1-590). Briefly: cell-based or functional assay.

Square brackets hold non-standard residues; d marks the D form. * marks the point of attachment. Sta = CC(C)C[C@H](N)[C@@H](O)CC(=O)O; NHPhenethyl = c1ccc(CCN*)cc1; Cbz = O=C(OCc1ccccc1)*

Sequence of plasmepsin V in P. falciparum parasites (endogenous enzyme in trophozoites expressing PfEMP3-GFP) (Q8I6Z5 whole entry): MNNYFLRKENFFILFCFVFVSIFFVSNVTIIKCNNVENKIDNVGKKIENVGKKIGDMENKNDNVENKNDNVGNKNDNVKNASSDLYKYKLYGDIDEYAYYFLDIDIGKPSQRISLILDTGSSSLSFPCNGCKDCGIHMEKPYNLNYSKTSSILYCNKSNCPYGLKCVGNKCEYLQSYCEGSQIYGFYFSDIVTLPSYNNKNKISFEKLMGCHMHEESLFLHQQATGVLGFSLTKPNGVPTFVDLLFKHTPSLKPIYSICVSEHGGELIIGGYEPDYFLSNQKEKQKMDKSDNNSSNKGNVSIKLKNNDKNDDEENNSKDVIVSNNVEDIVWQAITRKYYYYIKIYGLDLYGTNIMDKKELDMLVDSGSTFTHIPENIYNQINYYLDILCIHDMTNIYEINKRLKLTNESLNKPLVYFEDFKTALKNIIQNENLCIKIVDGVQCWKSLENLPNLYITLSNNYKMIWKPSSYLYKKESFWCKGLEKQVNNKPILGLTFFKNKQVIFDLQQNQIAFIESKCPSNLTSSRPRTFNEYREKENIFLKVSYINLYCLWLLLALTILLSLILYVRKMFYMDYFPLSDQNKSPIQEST
Sequence of recombinant P. falciparum plasmepsin V (residues N80-R528) (Q8I6Z5 80-528): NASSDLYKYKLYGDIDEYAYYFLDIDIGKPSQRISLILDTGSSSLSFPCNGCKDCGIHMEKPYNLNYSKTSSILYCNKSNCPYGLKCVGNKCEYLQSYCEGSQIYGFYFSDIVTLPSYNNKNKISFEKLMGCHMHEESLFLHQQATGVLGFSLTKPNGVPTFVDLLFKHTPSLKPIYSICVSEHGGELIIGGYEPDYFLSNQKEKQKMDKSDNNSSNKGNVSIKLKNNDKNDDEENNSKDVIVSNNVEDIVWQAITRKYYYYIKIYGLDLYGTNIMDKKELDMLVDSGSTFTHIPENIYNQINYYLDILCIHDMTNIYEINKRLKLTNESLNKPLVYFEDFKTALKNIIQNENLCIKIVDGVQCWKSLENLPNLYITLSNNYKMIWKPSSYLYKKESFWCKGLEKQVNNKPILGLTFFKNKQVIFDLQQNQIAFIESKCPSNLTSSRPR

B1: WEHI-842, Cbz-Cav(NH2)-Val-Sta-NH(CH2)2Ph.TFA (peptide)
peptide: Cbz-X-Val-[Sta]-NHPhenethyl
modifications: not fully specified (residue 1); printed as Cbz-Cav(NH2)-Val-Sta-NH(CH2)2Ph; also: TFA salt
Turning to B1, the “IC50, inhibition of cleavage of the fluorogenic KAHRP PEXEL peptide” value in test [1] turned out to be 790 pM. Besides, in test [2], the “inhibition of PEXEL processing of PfEMP3-GFP in parasites, immunoblot, fold against WEHI-916” value stood at 10 fold; the “inhibition of PfEMP3-GFP PEXEL cleavage in parasites, radiolabelling and densitometry, fold against WEHI-916” value is 10 fold.
